From patent US20200339678A1 (RIGEL PHARMACEUTICALS, published 2020)

T1: biotinylated human TIGIT (human, UniProt Q495A1 22-141, biotinylated (EZ-Link NHS-PEG4-biotin kit))
T1 construct: extracellular domain; also called TIGIT-ECD
T1 sequence (looked up): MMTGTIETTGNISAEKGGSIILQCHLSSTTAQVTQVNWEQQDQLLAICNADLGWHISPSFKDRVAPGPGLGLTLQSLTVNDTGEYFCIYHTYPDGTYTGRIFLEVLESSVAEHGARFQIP

T2: mouse TIGIT-Fc (mouse, UniProt P86176 29-148)
T2 construct: extracellular domain; also called TIGIT-ECD; not shown: Fc
T2 sequence (looked up): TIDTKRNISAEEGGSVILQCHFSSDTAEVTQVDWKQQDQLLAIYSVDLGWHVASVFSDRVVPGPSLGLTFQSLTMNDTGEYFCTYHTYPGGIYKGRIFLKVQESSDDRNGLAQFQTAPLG

T3: His-tagged recombinant Human TIGIT (human, UniProt Q495A1 22-141)
T3 construct: coated antigen of the direct ELISA; not shown: His tag
T3 sequence (looked up): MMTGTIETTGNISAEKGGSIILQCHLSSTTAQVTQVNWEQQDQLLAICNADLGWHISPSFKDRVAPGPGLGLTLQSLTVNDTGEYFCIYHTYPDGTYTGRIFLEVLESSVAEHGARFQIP

T4: His-tagged recombinant Mouse TIGIT (mouse, UniProt P86176 29-148, limits assumed)
T4 construct: coated antigen of the direct ELISA; not shown: His tag
T4 sequence (looked up): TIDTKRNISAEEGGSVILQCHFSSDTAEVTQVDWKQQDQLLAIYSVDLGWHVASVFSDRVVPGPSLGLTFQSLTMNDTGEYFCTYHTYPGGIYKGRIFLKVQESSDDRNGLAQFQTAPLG

T5: human TIGIT fused to a beta galactosidase portion, on YTS cells (YTS_hTIGIT/hGrb2) (human, UniProt Q495A1 22-244)
T5 sequence (looked up): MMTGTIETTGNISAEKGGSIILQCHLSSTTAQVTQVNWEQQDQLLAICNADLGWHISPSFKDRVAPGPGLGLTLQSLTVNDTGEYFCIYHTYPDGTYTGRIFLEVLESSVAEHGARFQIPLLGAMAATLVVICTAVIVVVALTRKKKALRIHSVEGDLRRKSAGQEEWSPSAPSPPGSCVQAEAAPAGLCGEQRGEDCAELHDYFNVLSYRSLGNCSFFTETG


What was measured:
[1] = target: T1, biotinylated human TIGIT; experiment: comp. ELISA vs PVR
Procedure: (§1) Antibodies were serially diluted in a 10-point curve starting at 1 μM in 3-fold steps. […] Units are in microM.

[2] = target: T2, mouse TIGIT-Fc; experiment: comp. ELISA vs PVR
Procedure: as §1

[3] = target: T3, His-tagged recombinant Human TIGIT; experiment: ELISA
Procedure: (§2) Binding affinities for antigen binding to anti-TIGIT monoclonal antibodies were determined by ELISA. […] Antibodies to be tested were diluted to 1 μM in PBS buffer containing 1% BSA and diluted 3-fold in a 10-point curve. […] Detection of the secondary antibody was determined using streptavidin-HRP and TMB reagent. All assays were performed at room temperature. Curve-fitting software was used to determine the EC₅₀ for each antibody.

[4] = target: T4, His-tagged recombinant Mouse TIGIT; experiment: ELISA
Procedure: as §2

[5] = target: T5, human TIGIT fused to a beta …; experiment: cell-based or functional assay

Binder	IC50 [1] [nM]	IC50 [2] [nM]	EC50 [3] [nM]	EC50 [4] [nM]	YTS_hTIGI/hGrbs_EFC_Agonism, 221_WT [5] [µM]	YTS_hTIGI/hGrbs_EFC_Antagonism, 221_hPVR/ICAM [5] [µM]
Ab1i10 (antibody, V domains shown, mIgG2a of Ab1, V99A) VH: EVQLLESGGGLVQPGGSLRLSCAASGFTFSSYAMHWVRQAPGKGLEWVSGISSNGGSTSYADSVKGRFTISRDNSKNTLYLQMNSLRAEDTAVYYCARVPYSAWIDYWGQGTLVTVSS VL: not shown	5.8	488	3.9	15.1		
Ab40i4 (antibody, V domains shown) VH: EVQLLESGGGLVQPGGSLRLSCAASGFTFSSYSMNWVRQAPGKGLEWVAGIKSSSGNKYYADSVKGRFTISRDNSKNTLYLQMNSLRAEDTAVYYCARGPYDVWMDYWGQGTLVTVSS VL: not shown	3	11.1	0.3	2.5	0.0007	1.63
Ab15i1 (antibody, V domains shown, hIgG1 of Ab15) VH: EVQLLESGGGLVQPGGSLRLSCAASGFTFSSYSMHWVRQAPGKGLEWVASIWSNSGNTGYADSVKGRFTISRDNSKNTLYLQMNSLRAEDTAVYYCARVPYDYWMDYWGQGTLVTVSS VL: not shown	2.2	1.2	4.8	2.3	> 1	> 1
Ab40i6 (antibody, V domains shown, hIgG1 of Ab40, Y52aS) VH: EVQLLESGGGLVQPGGSLRLSCAASGFTFSSYGMNWVRQAPGKGLEWVAGIKSSSGNKYYADSVKGRFTISRDNSKNTLYLQMNSLRAEDTAVYYCARGPYDVWMDYWGQGTLVTVSS VL: not shown	2.7	78.8	0.3	37	0.0014	0.276
Ab40i7 (antibody, V domains shown, mIgG2a of Ab40, Y52aS) VH: EVQLLESGGGLVQPGGSLRLSCAASGFTFSSYGMNWVRQAPGKGLEWVAGIKSSSGNKYYADSVKGRFTISRDNSKNTLYLQMNSLRAEDTAVYYCARGPYDVWMDYWGQGTLVTVSS VL: not shown	3	121	0.2	7.6	0.0156	0.0163
Ab1i8 (antibody, V domains shown, mIgG2a of Ab1, S98G) VH: EVQLLESGGGLVQPGGSLRLSCAASGFTFSSYAMHWVRQAPGKGLEWVSGISSNGGSTSYADSVKGRFTISRDNSKNTLYLQMNSLRAEDTAVYYCARVPYGVWIDYWGQGTLVTVSS VL: not shown	5.8	99.3	1.7	26.3		
Ab1i9 (antibody, V domains shown, mIgG2a of Ab1, V95A) VH: EVQLLESGGGLVQPGGSLRLSCAASGFTFSSYAMHWVRQAPGKGLEWVSGISSNGGSTSYADSVKGRFTISRDNSKNTLYLQMNSLRAEDTAVYYCARAPYSVWIDYWGQGTLVTVSS VL: not shown	2.3	9	0.6	2.3		
Ab32i1 (antibody, V domains shown, hIgG1 of Ab32) VH: EVQLLESGGGLVQPGGSLRLSCAASGFTFSSYSMHWVRQAPGKGLEWVANINSNGGNTGYADSVKGRFTISRDNSKNTLYLQMNSLRAEDTAVYYCARVPYDVWMDYWGQGTLVTVSS VL: not shown	1.1	1.4	0.4	2.5		0.069
Ab16i1 (antibody, V domains shown) VH: EVQLLESGGGLVQPGGSLRLSCAASGFTFSSYSMHWVRQAPGKGLEWVAAIKSSGSSTSYADSVKGRFTISRDNSKNTLYLQMNSLRAEDTAVYYCARVPYDYWLDYWGQGTLVTVSS VL: not shown	2.1	0.4	2.1	0.5		
Ab15i2 (antibody, V domains shown, mIgG2a of Ab15) VH: EVQLLESGGGLVQPGGSLRLSCAASGFTFSSYSMHWVRQAPGKGLEWVASIWSNSGNTGYADSVKGRFTISRDNSKNTLYLQMNSLRAEDTAVYYCARVPYDYWMDYWGQGTLVTVSS VL: not shown	10.9	1.6	21.6	2.7	> 1	0.275
Ab22i1 (antibody, V domains shown, hIgG1 of Ab22) VH: EVQLLESGGGLVQPGGSLRLSCAASGFTFSSYSMHWVRQAPGKGLEWVASIKSSGGSKYYADSVKGRFTISRDNSKNTLYLQMNSLRAEDTAVYYCARVPYDYWMDYWGQGTLVTVSS VL: not shown	1.5	0.5	0.7	0.3		0.16
Ab40i3 (antibody, V domains shown, mIgG2a of Ab40, G33S) VH: EVQLLESGGGLVQPGGSLRLSCAASGFTFSSYSMNWVRQAPGKGLEWVAGIKYSSGNKYYADSVKGRFTISRDNSKNTLYLQMNSLRAEDTAVYYCARGPYDVWMDYWGQGTLVTVSS VL: not shown	3.7	> 1000	0.2	41	0.08	0.0098
Ab22i2 (antibody, V domains shown, mIgG2a of Ab22) VH: EVQLLESGGGLVQPGGSLRLSCAASGFTFSSYSMHWVRQAPGKGLEWVASIKSSGGSKYYADSVKGRFTISRDNSKNTLYLQMNSLRAEDTAVYYCARVPYDYWMDYWGQGTLVTVSS VL: not shown	38.3	2.6	1.8	0.2	> 1	> 1
Ab1i5 (antibody, V domains shown, mIgG2a of Ab1, I100aA) VH: EVQLLESGGGLVQPGGSLRLSCAASGFTFSSYAMHWVRQAPGKGLEWVSGISSNGGSTSYADSVKGRFTISRDNSKNTLYLQMNSLRAEDTAVYYCARVPYSVWADYWGQGTLVTVSS VL: not shown	2.8	13.3	8	6.8		
Ab48 (Fab, V domains shown) VH: EVQLLESGGGLVQPGGSLRLSCAASGFTFSSYSMNWVRQAPGKGLEWVANIKSSGSSTSYADSVKGRFTISRDNSKNTLYLQMNSLRAEDTAVYYCARGPYDVWMDYWGQGTLVTVSS VL: not shown	111	64.7	13.8	41.8		
Ab28i2 (antibody, V domains shown, mIgG2a of Ab28) VH: EVQLLESGGGLVQPGGSLRLSCAASGFTFSSYSMHWVRQAPGKGLEWVANINSNGGNTGYADSVKGRFTISRDNSKNTLYLQMNSLRAEDTAVYYCARVPYDVWMDYWGQGTLVTVSS VL: not shown	2	1.5	0.6	2.5		0.26
Ab10i2 (antibody, V domains shown, hIgG1 of Ab10) VH: EVQLLESGGGLVQPGGSLRLSCAASGFTFSSYSMNWVRQAPGKGLEWVAYIKSNSGTKGYADSVKGRFTISRDNSKNTLYLQMNSLRAEDTAVYYCARGPYDYWLDYWGQGTLVTVSS VL: not shown	8.5	1.1	0.3	0.1		0.39
Ab16i2 (antibody, V domains shown) VH: EVQLLESGGGLVQPGGSLRLSCAASGFTFSSYSMHWVRQAPGKGLEWVAAIKSSGSSTSYADSVKGRFTISRDNSKNTLYLQMNSLRAEDTAVYYCARVPYDYWLDYWGQGTLVTVSS VL: not shown	84.6	4.1	6.4	0.5		
Ab28i1 (antibody, V domains shown, hIgG1 of Ab28) VH: EVQLLESGGGLVQPGGSLRLSCAASGFTFSSYSMHWVRQAPGKGLEWVANINSNGGNTGYADSVKGRFTISRDNSKNTLYLQMNSLRAEDTAVYYCARVPYDVWMDYWGQGTLVTVSS VL: not shown	1.2	1.3	0.4	2.7		0.0758
Ab1i7 (antibody, V domains shown, mIgG2a of Ab1, S98A) VH: EVQLLESGGGLVQPGGSLRLSCAASGFTFSSYAMHWVRQAPGKGLEWVSGISSNGGSTSYADSVKGRFTISRDNSKNTLYLQMNSLRAEDTAVYYCARVPYAVWIDYWGQGTLVTVSS VL: not shown	16.1	183	3.8	72.9		
Ab1 (Fab, V domains shown) VH: EVQLLESGGGLVQPGGSLRLSCAASGFTFSSYAMHWVRQAPGKGLEWVSGISSNGGSTSYADSVKGRFTISRDNSKNTLYLQMNSLRAEDTAVYYCARVPYSVWIDYWGQGTLVTVSS VL: not shown	89.9	632	40.3	181		
